Experimental data: IntAct's records for PubMed 15064750

B1: Proliferation-associated protein 2G4 (Homo sapiens), Q9UQ80 (parent)
chain: MSGEDEQQEQTIAEDLVVTKYKMGGDIANRVLRSLVEASSSGVSVLSLCEKGDAMIMEETGKIFKKEKEMKKGIAFPTSISVNNCVCHFSPLKSDQDYILKEGDLVKIDLGVHVDGFIANVAHTFVVDVAQGTQVTGRKADVIKAAHLCAEAALRLVKPGNQNTQVTEAWNKVAHSFNCTPIEGMLSHQLKQHVIDGEKTIIQNPTDQQKKDHEKAEFEVHEVYAVDVLVSSGEGKAKDAGQRTTIYKRDPSKQYGLKMKTSRAFFSEVERRFDAMPFTLRAFEDEKKARMGVVECAKHELLQPFNVLYEKEGEFVAQFKFTVLLMPNGPMRITSGPFEPDLYKSEMEVQDAELKALLQSSASRKTQKKKKKKASKTAENATSGETLEENEAGD

Variants of: B1
Settings: with npm_human NPM1, P06748
Sequence of npm_human NPM1, P06748 (P06748 whole entry): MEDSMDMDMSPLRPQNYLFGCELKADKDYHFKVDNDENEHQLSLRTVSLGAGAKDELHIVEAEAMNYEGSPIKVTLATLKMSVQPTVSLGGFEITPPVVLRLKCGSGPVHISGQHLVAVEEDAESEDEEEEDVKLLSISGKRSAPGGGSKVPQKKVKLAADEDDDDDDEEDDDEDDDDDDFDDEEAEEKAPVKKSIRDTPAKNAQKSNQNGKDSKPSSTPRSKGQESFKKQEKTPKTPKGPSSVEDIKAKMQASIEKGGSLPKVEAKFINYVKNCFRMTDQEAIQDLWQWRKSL

| effect of a mutation on the interaction | Variant |
| --- | --- |
| disrupting interaction | MSGEDEQQEQTIAEDLVVTAYAMGGDIANRVLRSLVEASSSGVSVLSLCEKGDAMIMEETGKIFKKEKEMKKGIAFPTSISVNNCVCHFSPLKSDQDYILKEGDLVKIDLGVHVDGFIANVAHTFVVDVAQGTQVTGRKADVIKAAHLCAEAALRLVKPGNQNTQVTEAWNKVAHSFNCTPIEGMLSHQLKQHVIDGEKTIIQNPTDQQKKDHEKAEFEVHEVYAVDVLVSSGEGKAKDAGQRTTIYKRDPSKQYGLKMKTSRAFFSEVERRFDAMPFTLRAFEDEKKARMGVVECAKHELLQPFNVLYEKEGEFVAQFKFTVLLMPNGPMRITSGPFEPDLYKSEMEVQDAELKALLQSSASRKTQKKKKKKASKTAENATSGETLEENEAGD [K20A;K22A] |
| decreasing interaction | MSGEDEQQEQTIAEDLVVTKYKMGGDIANRVLRSLVEASSSGVSVLSLCEKGDAMIMEETGKIFKKEKEMKKGIAFPTSISVNNCVCHFSPLKSDQDYILKEGDLVKIDLGVHVDGFIANVAHTFVVDVAQGTQVTGRKADVIKAAHLCAEAALRLVKPGNQNTQVTEAWNKVAHSFNCTPIEGMLSHQLKQHVIDGEKTIIQNPTDQQKKDHEKAEFEVHEVYAVDVLVSSGEGKAKDAGQRTTIYKRDPSKQYGLKMKTSRAFFSEVERRFDAMPFTLRAFEDEKKARMGVVECAKHELLQPFNVLYEKEGEFVAQFKFTVLLMPNGPMRITSGPFEPDLYKSEMEVQDAELKALLQSSASAATQKKKKKKASKTAENATSGETLEENEAGD [R364A;K365A] |
